Experimental data taken from patent US8221992.

Key:
[1] = target: GST-TRAM fusion protein (wild type), Q86XR7
[2] = target: Mal (MyD88 adaptor-like), P58753
[3] = target: GST-TRAM Ser16 mutant (serine 16 mutated to alanine), Q86XR7
GST-TRAM Ser16 mutant (serine 16 mutated to alanine), Q86XR7, sequence (Q86XR7 whole entry, looked up, change not shown): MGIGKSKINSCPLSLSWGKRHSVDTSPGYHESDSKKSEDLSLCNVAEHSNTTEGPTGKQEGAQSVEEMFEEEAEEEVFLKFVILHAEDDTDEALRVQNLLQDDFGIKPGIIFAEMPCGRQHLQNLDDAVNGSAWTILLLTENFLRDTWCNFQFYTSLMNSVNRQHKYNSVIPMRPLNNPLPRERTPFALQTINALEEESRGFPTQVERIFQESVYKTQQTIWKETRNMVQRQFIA

GST-TRAM fusion protein (wild type), Q86XR7, sequence (Q86XR7 whole entry, the tested form may be a part): as the sequence (Q86XR7 whole entry, looked up, change not shown) above
Mal (MyD88 adaptor-like), P58753, sequence (P58753 whole entry): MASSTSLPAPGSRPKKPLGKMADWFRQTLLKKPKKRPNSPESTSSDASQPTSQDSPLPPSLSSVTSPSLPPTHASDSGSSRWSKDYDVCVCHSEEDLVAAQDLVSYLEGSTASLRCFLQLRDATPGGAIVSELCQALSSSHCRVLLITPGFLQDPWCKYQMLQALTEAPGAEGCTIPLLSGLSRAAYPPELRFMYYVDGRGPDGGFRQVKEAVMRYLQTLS

| Protein | phosphorylation in an in-vitro kinase assay ([γ32P] ATP, autoradiography) [1] | phosphorylation in an in-vitro kinase assay ([γ32P] ATP, autoradiography) [2] | phosphorylation of GST-TRAM after pulldown from immunodepleted THP1 lysates (kinase assay) [1] | phosphorylation of GST-TRAM after pulldown from THP1 lysates (kinase assay) [3] |
| --- | --- | --- | --- | --- |
| recombinant PKCε (rePKCε) (Calbiochem) (protein) MVVFNGLLKIKICEAVSLKPTAWSLRHAVGPRPQTFLLDPYIALNVDDSRIGQTATKQKTNSPAWHDEFVTDVCNGRKIELAVFHDAPIGYDDFVANCTIQFEELLQNGSRHFEDWIDLEPEGRVYVIIDLSGSSGEAPKDNEERVFRERMRPRKRQGAVRRRVHQVNGHKFMATYLRQPTYCSHCRDFIWGVIGKQGYQCQVCTCVVHKRCHELIITKCAGLKKQETPDQVGSQRFSVNMPHKFGIHNYKVPTFCDHCGSLLWGLLRQGLQCKVCKMNVHRRCETNVAPNCGVDARGIAKVLADLGVTPDKITNSGQRRKKLIAGAESPQPASGSSPSEEDRSKSAPTSPCDQEIKELENNIRKALSFDNRGEEHRAASSPDGQLMSPGENGEVRQGQAKRLGLDEFNFIKVLGKGSFGKVMLAELKGKDEVYAVKVLKKDVILQDDDVDCTMTEKRILALARKHPYLTQLYCCFQTKDRLFFVMEYVNGGDLMFQIQRSRKFDEPRSRFYAAEVTSALMFLHQHGVIYRDLKLDNILLDAEGHCKLADFGMCKEGILNGVTTTTFCGTPDYIAPEILQELEYGPSVDWWALGVLMYEMMAGQPPFEADNEDDLFESILHDDVLYPVWLSKEAVSILKAFMTKNPHKRLGCVASQNGEDAIKQHPFFKEIDWVLLEQKKIKPPFKPRIKTKRDVNNFDQDFTREEPVLTLVDEAIVKQINQEEFKGFSYFGEDLMP | recombinant PKCε (rePKCε) (Calbiochem) phosphorylated GST-TRAM | rePKCε phosphorylated WT-TRAM but not Mal |  |  |
| recombinant PKCζ (rePKCζ) (protein) MPSRTGPKMEGSGGRVRLKAHYGGDIFITSVDAATTFEELCEEVRDMCRLHQQHPLTLKWVDSEGDPCTVSSQMELEEAFRLARQCRDEGLIIHVFPSTPEQPGLPCPGEDKSIYRRGARRWRKLYRANGHLFQAKRFNRRAYCGQCSERIWGLARQGYRCINCKLLVHKRCHGLVPLTCRKHMDSVMPSQEPPVDDKNEDADLPSEETDGIAYISSSRKHDSIKDDSEDLKPVIDGMDGIKISQGLGLQDFDLIRVIGRGSYAKVLLVRLKKNDQIYAMKVVKKELVHDDEDIDWVQTEKHVFEQASSNPFLVGLHSCFQTTSRLFLVIEYVNGGDLMFHMQRQRKLPEEHARFYAAEICIALNFLHERGIIYRDLKLDNVLLDADGHIKLTDYGMCKEGLGPGDTTSTFCGTPNYIAPEILRGEEYGFSVDWWALGVLMFEMMAGRSPFDIITDNPDMNTEDYLFQVILEKPIRIPRFLSVKASHVLKGFLNKDPKERLGCRPQTGFSDIKSHAFFRSIDWDLLEKKQALPPFQPQITDDYGLDNFDTQFTSEPVQLTPDDEDAIKRIDQSEFEGFEYINPLLLSTEESV | Recombinant PKCζ did not phosphorylate TRAM again suggesting specificity |  |  |  |
| PKCε in THP1 cell lysates (protein) MVVFNGLLKIKICEAVSLKPTAWSLRHAVGPRPQTFLLDPYIALNVDDSRIGQTATKQKTNSPAWHDEFVTDVCNGRKIELAVFHDAPIGYDDFVANCTIQFEELLQNGSRHFEDWIDLEPEGRVYVIIDLSGSSGEAPKDNEERVFRERMRPRKRQGAVRRRVHQVNGHKFMATYLRQPTYCSHCRDFIWGVIGKQGYQCQVCTCVVHKRCHELIITKCAGLKKQETPDQVGSQRFSVNMPHKFGIHNYKVPTFCDHCGSLLWGLLRQGLQCKVCKMNVHRRCETNVAPNCGVDARGIAKVLADLGVTPDKITNSGQRRKKLIAGAESPQPASGSSPSEEDRSKSAPTSPCDQEIKELENNIRKALSFDNRGEEHRAASSPDGQLMSPGENGEVRQGQAKRLGLDEFNFIKVLGKGSFGKVMLAELKGKDEVYAVKVLKKDVILQDDDVDCTMTEKRILALARKHPYLTQLYCCFQTKDRLFFVMEYVNGGDLMFQIQRSRKFDEPRSRFYAAEVTSALMFLHQHGVIYRDLKLDNILLDAEGHCKLADFGMCKEGILNGVTTTTFCGTPDYIAPEILQELEYGPSVDWWALGVLMYEMMAGQPPFEADNEDDLFESILHDDVLYPVWLSKEAVSILKAFMTKNPHKRLGCVASQNGEDAIKQHPFFKEIDWVLLEQKKIKPPFKPRIKTKRDVNNFDQDFTREEPVLTLVDEAIVKQINQEEFKGFSYFGEDLMP |  |  | the removal of PKCε from the lysates abolishes the phosphorylation of TRAM | we mutated serine 16 to an alanine and found that the LPS dependent phosphorylation of TRAM was severally impaired |
| PKCζ in THP1 cell lysates (protein) MPSRTGPKMEGSGGRVRLKAHYGGDIFITSVDAATTFEELCEEVRDMCRLHQQHPLTLKWVDSEGDPCTVSSQMELEEAFRLARQCRDEGLIIHVFPSTPEQPGLPCPGEDKSIYRRGARRWRKLYRANGHLFQAKRFNRRAYCGQCSERIWGLARQGYRCINCKLLVHKRCHGLVPLTCRKHMDSVMPSQEPPVDDKNEDADLPSEETDGIAYISSSRKHDSIKDDSEDLKPVIDGMDGIKISQGLGLQDFDLIRVIGRGSYAKVLLVRLKKNDQIYAMKVVKKELVHDDEDIDWVQTEKHVFEQASSNPFLVGLHSCFQTTSRLFLVIEYVNGGDLMFHMQRQRKLPEEHARFYAAEICIALNFLHERGIIYRDLKLDNVLLDADGHIKLTDYGMCKEGLGPGDTTSTFCGTPNYIAPEILRGEEYGFSVDWWALGVLMFEMMAGRSPFDIITDNPDMNTEDYLFQVILEKPIRIPRFLSVKASHVLKGFLNKDPKERLGCRPQTGFSDIKSHAFFRSIDWDLLEKKQALPPFQPQITDDYGLDNFDTQFTSEPVQLTPDDEDAIKRIDQSEFEGFEYINPLLLSTEESV |  |  | The removal of PKCζ had no effect on the phosphorylation of TRAM |  |
